Target: T1, SRC1a-M1234 (human, UniProt Q15788 1-1441, [35S]-labelled)
T1 construct: range 1-1441; also called mutant SRC1
Assay: GST pulldown, +/- 10^-6 M E2

T1 sequence (Q15788 other isoform, or with tags, fused parts or gaps limits assumed): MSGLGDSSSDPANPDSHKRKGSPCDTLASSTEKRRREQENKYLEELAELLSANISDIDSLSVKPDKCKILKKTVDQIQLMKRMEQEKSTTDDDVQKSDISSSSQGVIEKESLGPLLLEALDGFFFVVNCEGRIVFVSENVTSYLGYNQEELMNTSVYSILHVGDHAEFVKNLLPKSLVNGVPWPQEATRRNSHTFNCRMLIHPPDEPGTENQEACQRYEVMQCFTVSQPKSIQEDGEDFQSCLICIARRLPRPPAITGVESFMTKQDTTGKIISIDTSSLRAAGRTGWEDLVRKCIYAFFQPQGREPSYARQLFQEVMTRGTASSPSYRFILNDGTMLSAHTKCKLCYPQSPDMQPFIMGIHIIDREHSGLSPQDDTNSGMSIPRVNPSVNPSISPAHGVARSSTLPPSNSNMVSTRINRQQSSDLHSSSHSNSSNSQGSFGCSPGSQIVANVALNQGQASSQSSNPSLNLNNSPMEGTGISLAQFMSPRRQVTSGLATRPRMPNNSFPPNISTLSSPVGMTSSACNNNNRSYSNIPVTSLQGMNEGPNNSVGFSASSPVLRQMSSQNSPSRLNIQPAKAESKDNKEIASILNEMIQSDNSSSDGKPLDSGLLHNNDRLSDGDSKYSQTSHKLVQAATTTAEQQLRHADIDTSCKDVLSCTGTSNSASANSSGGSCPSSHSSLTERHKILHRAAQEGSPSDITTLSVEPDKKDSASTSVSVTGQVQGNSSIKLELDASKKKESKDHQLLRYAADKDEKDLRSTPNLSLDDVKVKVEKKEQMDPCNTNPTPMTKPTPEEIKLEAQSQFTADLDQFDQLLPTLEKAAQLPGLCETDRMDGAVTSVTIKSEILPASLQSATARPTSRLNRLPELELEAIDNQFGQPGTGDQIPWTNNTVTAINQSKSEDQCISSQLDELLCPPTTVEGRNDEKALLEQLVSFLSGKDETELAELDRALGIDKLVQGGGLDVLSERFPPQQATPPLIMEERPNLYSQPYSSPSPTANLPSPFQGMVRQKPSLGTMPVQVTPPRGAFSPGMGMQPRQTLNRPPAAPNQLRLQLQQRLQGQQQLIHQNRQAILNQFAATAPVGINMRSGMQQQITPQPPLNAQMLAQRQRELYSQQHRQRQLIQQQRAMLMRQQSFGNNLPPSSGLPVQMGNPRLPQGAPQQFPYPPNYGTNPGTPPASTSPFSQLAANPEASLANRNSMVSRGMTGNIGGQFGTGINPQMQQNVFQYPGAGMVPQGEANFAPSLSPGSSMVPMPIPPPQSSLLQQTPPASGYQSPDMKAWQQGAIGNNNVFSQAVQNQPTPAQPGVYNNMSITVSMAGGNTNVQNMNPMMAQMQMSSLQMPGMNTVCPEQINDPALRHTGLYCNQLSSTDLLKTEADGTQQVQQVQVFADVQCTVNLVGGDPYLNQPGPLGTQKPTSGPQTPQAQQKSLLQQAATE

B1: GST-AF2 (ligand binding domain of the mouse estrogen receptor fused to glutathione-S-transferase) (receptor, UniProt P19785 313-599, looked up)
chain: SLTADQMVSALLDAEPPMIYSEYDPSRPFSEASMMGLLTNLADRELVHMINWAKRVPGFGDLNLHDQVHLLECAWLEILMIGLVWRSMEHPGKLLFAPNLLLDRNQGKCVEGMVEIFDMLLATSSRFRMMNLQGEEFVCLKSIILLNSGVYTFLSSTLKSLEEKDHIHRVLDKITDTLIHLMAKAGLTLQQQHRRLAQLLLILSHIRHMSNKGMEHLYNMKCKNVVPLYDLLLEMLDAHRLHAPASRMGVPPEEPSQTQLATTSSTSAHSLQTYYIPPEAEGFPNTI
notes: range 313-599; Loaded on glutathione beads; tested with or without 10^-6 M E2; also called ER LBD; not shown: glutathione-S-transferase (GST)
B1: no binding.

— EP0980526B1 (IMPERIAL CANCER RESEARCH TECHNOLOGY LIMITED, dated 1998)
